# Laboratory results reported in US20190022241A1 (AbbVie / Abbott, published 2019).
# T1: SEZ6 CUB Domain 1 (aa 397-508) on yeast (human, UniProt Q53EL9 416-527)
# T1 construct: yeast display
# T1 sequence: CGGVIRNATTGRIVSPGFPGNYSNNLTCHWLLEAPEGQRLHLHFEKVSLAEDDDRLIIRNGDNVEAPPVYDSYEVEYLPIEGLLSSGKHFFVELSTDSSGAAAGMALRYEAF
# T2: extracellular domain of cynomolgus SEZ6 on yeast (cynomolgus, UniProt Q53EL9 23-925 (human entry))
# T2 construct: yeast display; the whole entry is named; also called cSEZ6; cynomolgus SEZ6 ECD
# T2 chain: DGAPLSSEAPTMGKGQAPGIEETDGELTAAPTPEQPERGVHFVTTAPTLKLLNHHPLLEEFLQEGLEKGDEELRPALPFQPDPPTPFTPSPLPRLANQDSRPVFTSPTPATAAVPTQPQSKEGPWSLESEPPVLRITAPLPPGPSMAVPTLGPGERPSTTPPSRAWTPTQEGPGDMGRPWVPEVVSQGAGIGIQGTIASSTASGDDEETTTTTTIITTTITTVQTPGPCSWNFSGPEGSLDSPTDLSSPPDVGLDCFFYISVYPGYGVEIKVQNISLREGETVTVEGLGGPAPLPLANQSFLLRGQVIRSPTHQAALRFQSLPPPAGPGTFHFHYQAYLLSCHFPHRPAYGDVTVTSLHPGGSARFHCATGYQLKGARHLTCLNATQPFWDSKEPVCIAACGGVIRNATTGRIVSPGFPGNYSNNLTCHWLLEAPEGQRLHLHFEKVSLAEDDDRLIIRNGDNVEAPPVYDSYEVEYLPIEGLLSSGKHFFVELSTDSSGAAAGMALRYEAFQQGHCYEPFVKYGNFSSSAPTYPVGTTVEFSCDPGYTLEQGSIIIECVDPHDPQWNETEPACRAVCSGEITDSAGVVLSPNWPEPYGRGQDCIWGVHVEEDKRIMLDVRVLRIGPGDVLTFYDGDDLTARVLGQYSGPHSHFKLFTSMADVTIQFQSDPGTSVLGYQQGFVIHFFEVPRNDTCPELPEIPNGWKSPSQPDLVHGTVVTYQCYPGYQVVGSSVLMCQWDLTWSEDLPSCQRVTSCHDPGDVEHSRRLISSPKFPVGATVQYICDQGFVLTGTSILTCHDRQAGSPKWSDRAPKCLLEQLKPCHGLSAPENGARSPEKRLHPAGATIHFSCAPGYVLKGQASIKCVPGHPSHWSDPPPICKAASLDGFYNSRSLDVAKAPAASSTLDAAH
# T3: rSEZ6-ECD-His (rat, UniProt Q7TSK2 20-922 (mouse entry))
# T3 construct: the whole entry is named; also called rat recombinant SEZ6-His; rat SEZ6 ECD
# T3 chain: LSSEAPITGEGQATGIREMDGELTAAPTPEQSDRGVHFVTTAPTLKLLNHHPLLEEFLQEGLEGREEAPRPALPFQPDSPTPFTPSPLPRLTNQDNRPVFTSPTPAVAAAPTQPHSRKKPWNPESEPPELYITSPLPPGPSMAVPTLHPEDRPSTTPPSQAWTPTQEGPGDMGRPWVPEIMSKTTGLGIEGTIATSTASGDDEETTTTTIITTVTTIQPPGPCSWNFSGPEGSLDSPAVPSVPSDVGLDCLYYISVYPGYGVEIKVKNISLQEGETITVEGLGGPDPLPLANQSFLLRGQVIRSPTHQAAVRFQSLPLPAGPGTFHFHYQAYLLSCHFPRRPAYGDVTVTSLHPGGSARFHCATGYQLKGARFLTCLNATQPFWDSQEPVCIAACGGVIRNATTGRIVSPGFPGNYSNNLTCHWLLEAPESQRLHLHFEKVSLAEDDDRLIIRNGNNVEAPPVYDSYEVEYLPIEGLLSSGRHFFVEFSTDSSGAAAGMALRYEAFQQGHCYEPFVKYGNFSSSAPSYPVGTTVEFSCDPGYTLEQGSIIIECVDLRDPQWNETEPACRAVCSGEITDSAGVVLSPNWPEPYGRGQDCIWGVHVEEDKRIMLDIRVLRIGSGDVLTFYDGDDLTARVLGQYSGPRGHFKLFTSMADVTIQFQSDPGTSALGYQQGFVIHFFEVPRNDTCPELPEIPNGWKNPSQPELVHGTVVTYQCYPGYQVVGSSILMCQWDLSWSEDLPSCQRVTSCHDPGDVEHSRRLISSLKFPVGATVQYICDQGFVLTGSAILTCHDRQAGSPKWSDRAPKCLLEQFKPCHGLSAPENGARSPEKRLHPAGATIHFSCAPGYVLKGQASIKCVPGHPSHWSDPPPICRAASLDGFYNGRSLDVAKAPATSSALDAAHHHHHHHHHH
# T4: human SEZ6L ECD-His (human, UniProt Q9BYH1 29-955)
# T4 construct: whole entry named
# T4 sequence: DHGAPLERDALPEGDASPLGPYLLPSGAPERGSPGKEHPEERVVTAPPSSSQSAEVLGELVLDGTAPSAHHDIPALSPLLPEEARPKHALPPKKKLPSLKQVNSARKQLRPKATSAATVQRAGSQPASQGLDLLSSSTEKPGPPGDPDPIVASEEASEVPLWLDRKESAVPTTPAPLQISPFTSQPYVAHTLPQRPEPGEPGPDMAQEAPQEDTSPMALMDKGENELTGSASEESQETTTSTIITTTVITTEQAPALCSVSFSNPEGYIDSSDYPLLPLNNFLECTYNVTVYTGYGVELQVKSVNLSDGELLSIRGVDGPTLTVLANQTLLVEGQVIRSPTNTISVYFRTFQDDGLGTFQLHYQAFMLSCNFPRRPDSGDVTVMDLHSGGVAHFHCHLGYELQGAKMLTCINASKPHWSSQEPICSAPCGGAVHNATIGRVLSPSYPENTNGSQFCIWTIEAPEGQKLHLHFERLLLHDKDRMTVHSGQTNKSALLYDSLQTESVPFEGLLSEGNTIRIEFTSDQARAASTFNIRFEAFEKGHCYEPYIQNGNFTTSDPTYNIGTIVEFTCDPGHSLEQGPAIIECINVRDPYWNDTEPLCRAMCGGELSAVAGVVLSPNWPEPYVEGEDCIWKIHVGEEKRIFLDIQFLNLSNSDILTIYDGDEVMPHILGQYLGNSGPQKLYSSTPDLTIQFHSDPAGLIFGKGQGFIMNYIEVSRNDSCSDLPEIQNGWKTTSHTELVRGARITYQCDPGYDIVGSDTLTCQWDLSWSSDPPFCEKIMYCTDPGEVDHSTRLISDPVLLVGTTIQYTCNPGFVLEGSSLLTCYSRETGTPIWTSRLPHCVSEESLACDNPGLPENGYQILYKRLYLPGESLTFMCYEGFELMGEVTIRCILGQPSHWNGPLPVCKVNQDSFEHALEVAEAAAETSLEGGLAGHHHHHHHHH
# T5: rat SEZ6 on RIN-m5F cells (rat, UniProt Q7TSK2 20-991 (mouse entry))
# T5 construct: endogenous on RIN-m5F cells; also called rSEZ6
# T5 chain: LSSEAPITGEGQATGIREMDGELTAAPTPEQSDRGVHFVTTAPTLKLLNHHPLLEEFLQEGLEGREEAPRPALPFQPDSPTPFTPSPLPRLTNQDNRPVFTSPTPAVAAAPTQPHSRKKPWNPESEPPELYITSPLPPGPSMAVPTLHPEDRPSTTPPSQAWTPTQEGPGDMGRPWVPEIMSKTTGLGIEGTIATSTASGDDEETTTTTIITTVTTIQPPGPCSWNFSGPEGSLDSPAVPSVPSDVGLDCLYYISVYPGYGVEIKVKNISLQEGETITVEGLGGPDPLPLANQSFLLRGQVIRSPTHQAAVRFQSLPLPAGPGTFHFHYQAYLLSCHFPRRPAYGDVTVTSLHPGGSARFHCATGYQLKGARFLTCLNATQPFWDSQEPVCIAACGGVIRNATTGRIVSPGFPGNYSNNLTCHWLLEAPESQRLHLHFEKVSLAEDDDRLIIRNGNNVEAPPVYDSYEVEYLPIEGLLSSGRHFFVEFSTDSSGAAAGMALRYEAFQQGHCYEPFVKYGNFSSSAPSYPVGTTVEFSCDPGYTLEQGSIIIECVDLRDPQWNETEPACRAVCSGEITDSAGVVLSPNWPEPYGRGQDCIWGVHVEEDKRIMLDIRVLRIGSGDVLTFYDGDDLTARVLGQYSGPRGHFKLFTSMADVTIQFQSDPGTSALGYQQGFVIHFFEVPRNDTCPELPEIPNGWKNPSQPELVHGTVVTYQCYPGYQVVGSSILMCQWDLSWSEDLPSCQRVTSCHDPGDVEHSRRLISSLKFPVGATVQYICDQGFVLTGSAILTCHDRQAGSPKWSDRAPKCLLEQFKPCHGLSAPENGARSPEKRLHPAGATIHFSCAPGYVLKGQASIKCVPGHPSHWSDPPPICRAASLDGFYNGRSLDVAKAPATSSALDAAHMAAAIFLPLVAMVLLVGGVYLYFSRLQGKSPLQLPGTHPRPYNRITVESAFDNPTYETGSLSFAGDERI
# Experiments:
# [1] = target: T1, SEZ6 CUB Domain 1 (aa 397-508) on yeast; experiment: yeast display, flow cytometry;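 note: antibody binding to individual SEZ6 domains displayed on yeast, measured by flow cytometry, antibody at 50 nM purified or hybridoma supernatant diluted 1:2, 90 min on ice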
# [2] = target: T2, extracellular domain of cynomolgus SEZ6 …; experiment: flow cytometry on yeast displaying the extracellular domain of cynomolgus SEZ6
# rSEZ6-ECD-His = target: T3, rSEZ6-ECD-His; experiment: bio-layer interferometry (ForteBio RED) or surface plasmon resonance (Biacore 2000) on rat SEZ6-His; the table does not say which; column Rat XR (Kd, nM)
# human SEZ6L2 ECD-His = target: T6, human SEZ6L2 ECD-His (human, UniProt Q6UXD5 28-843); experiment: ELISA on plates coated with SEZ6L2 protein
# T6 construct: whole entry named
# hSEZ6-ECD-His = target: T7, hSEZ6-ECD-His (human, UniProt Q53EL9 20-925); experiment: bio-layer interferometry (ForteBio RED) or surface plasmon resonance (Biacore 2000) on human SEZ6-His; the table does not say which; column Hu Affinity (Kd, nM)
# T7 construct: the whole entry is named; also called recombinant SEZ6-His; human recombinant SEZ6-His
# human SEZ6L ECD-His = target: T4, human SEZ6L ECD-His; experiment: ELISA on plates coated with SEZ6L protein
# [3] = target: T8, SEZ6 Sushi Domain 3 (amino acids 690-748) on yeast (human, UniProt Q53EL9 709-767); experiment: yeast display, flow cytometry;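 note: antibody binding to individual SEZ6 domains displayed on yeast, measured by flow cytometry, antibody at 50 nM purified or hybridoma supernatant diluted 1:2, 90 min on ice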
# T8 construct: yeast display
# [4] = target: T9, mouse SEZ6 on Neuro2a cells (mouse, UniProt Q7TSK2 20-991); experiment: flow cytometry on Neuro2a cells expressing mouse SEZ6
# T9 construct: endogenous on Neuro2a cells; also called murine SEZ6; mSEZ6
# [5] = target: T5, rat SEZ6 on RIN-m5F cells; experiment: flow cytometry on RIN-m5F cells expressing rat SEZ6, verified by BLI or SPR on rat SEZ6-His
# [6] = target: T10, SEZ6 Sushi Domain 1 (amino acids 336-395) on yeast (human, UniProt Q53EL9 355-414); experiment: yeast display, flow cytometry;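 note: antibody binding to individual SEZ6 domains displayed on yeast, measured by flow cytometry, antibody at 50 nM purified or hybridoma supernatant diluted 1:2, 90 min on ice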
# T10 construct: yeast display
# T6 sequence (Q6UXD5 other isoform, or with tags, fused parts or gaps): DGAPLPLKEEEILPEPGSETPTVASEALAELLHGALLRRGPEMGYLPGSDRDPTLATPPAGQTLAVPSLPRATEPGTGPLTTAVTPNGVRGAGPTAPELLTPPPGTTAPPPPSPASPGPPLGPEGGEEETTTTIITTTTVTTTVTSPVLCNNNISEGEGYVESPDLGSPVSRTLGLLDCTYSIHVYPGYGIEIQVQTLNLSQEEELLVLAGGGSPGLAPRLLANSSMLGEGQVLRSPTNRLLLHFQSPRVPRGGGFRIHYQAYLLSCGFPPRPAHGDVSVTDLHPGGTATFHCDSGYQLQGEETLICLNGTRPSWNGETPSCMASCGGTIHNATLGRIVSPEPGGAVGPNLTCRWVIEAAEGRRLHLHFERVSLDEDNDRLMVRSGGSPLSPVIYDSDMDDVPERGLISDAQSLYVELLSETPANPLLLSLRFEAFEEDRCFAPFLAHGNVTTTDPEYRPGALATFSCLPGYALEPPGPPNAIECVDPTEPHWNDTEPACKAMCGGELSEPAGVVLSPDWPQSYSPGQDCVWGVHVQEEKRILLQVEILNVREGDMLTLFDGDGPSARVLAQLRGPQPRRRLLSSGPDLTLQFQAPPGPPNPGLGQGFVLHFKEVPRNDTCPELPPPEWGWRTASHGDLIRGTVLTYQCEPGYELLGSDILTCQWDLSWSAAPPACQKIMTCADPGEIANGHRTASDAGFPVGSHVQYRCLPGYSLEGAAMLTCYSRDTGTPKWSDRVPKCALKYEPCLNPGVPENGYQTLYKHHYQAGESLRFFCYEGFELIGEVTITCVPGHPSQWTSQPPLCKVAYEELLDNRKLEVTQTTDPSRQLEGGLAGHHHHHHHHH
Binder,binding result [1],binding result [2],binding result (human SEZ6L2 ECD-His),binding result (human SEZ6L ECD-His),other results
"SC17.76 (antibody, V domains shown, murine mAb) VH: EVQLVESGGDLVKPGGSLKLSCVASGFTFSSYGMSWVRQTPDKRLEWVATISSGGTFTYYPDSVKGRFTVSRDNAKNTLYLQMSSLKSEDTAMYYCSRHGWGWGQGTLVTVSA VL: DIVITQDELSNPVTSGESVSISCRSSKSLLYKDGKTYLNWFLQRPGQSPQLLIYLMSTRASGVSDRFSGSGSGTDFTLEISRVKAEDVGVYYCQQLVEYPRTFGGGTKLEIK",binds,–,–,–,–
"SC17.122 (antibody, V domains shown, murine mAb) VH: EVHLVESGGDLVKPGGSLKLSCAASGFTFSSYGMSWVRQTPDKRLEWVATISSGGTYTYYPDSVKGRFTISRDNAKNTLYLQMSSLKSEDTAMYYCSRHGWGWGQGTLVTVSA VL: DIVITQDDLSNPVTSGESVSISCRSSKSLLYKDGKTYLNWFLQRPGQSPQLLIYLMSTRASGVSDRFSGSGSGTDFTLEISRVKAEDVGVYYCQQLVEYPRTFGGGTKLEIK",binds,–,–,–,–
"SC17.42 (antibody, V domains shown, murine mAb) VH: DVKLVESGGGLVRPGGSLKLSCAASGFTFSRYTMSWVRQTPEKRLEWAATINSGGSNTYYPDSVKGRFTISRDNAKNTLFLQMSSLKSEDTAMYYCTNGNHWGQGTTLTVSS VL: ENVLTQSPAIMSASPGEKVTMTCSASSSVNYMYWYQQKSSTSPKLWIYDTSKLTSGVPGRFSGSGSGNSYSLTISNMEAEDVATYYCFQGSGYPLTFGSGTKLEIK",–,no binding (tested: 5 µg/mL),no binding (tested: 1 µg/mL),no binding (tested: 1 µg/mL),Kd (rSEZ6-ECD-His): 3 nM; Kd (hSEZ6-ECD-His): 2.7 nM
"SC17.72 (antibody, V domains shown, murine mAb) VH: EVQLVESGGGLVKPGGSLKLSCAASGFTFSSYGMSWVRQTPEKRLEWVAAINSNGGSTYYPDTVKGRLTISRDNGKNTLYLQMSSLRSEDTALYYCVRDDGYYVFFAYWGQGTLVTVSA VL: DIQMTQTTSSLSASLGDRVTISCSASQGISNYLNWYQQKPDGTVKLLIYYTSSLHSGVPSKFSGSGSGTDYSLTISNLEPEDIATYYCQQYSKLPYTFGGGTKLEIK",–,–,–,–,binding result [3]: binds
"SC17.46 (antibody, V domains shown, murine mAb) VH: QVQLQQPGAELVKPGASMKLSCKASGYTFTSYWINWVKQRPGQGLEWIGNIFPDTTTTNYNEKFKSKATLTVDTSSSTAYMQLSSLTSDDSAVYYCAREYYDGTYDAMDYWGQGTSVTV VL: SFVMTQTPKFLLVSAGDRVTITCKASQSVNNDVAWYQQKPGQSPKLLIYYASNRYTGVPDRFTGSGYGTDFTFTISTVQAEDLAVYFCQQDYSSPRTFGGGTKLEIK",–,no binding (tested: 5 µg/mL),no binding (tested: 1 µg/mL),no binding (tested: 1 µg/mL),binding result [4]: no binding (tested: 5 µg/mL); binding result [5]: no binding (tested: 5 µg/mL); binding result [6]: binds
